The results in this text go back to the supplement of paper PMC10567573.

± gives the standard deviation.

A short description of this series: protein stability index of a GFP-peptide fusion (GPS, HEK-293T) (PSI 1-6); higher = more stable.
[1] abbreviates: treatment: DMSO, c terminus: a fixed tail appended.
[2] abbreviates: treatment: MLN4924 1 uM, 8 h, c terminus: a fixed tail appended.
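Further: 24-mer peptide tiles fused after GFP, lentivirally expressed, FACS-sorted into six equal bins by GFP/DsRed ratio, decoded by Illumina sequencing, PSI is the read-weighted mean bin number.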

In the case of LSSSIIHEIDSILGNKPYSKKDYR [KCNAB2], the protein stability index reads like this: under setting [1], 2.65 ± 0.26; under setting [2], 3.24 ± 0.45.

For LSSVDMRMTSSPSSIPRRDDFFRH [RAD54B], the protein stability index runs as follows: under setting [1], 3.21 ± 0.28; under setting [2], 3.38 ± 0.34.

On to LSSYISINSDTGVLYALRSFDYEQ [PCDHGA10], for which the protein stability index stood at 2.12 ± 0.23 under setting [1] and 2.27 ± 0.092 under setting [2].

For the sequence LTCSLSFLLCARSLLRGFLLQNEF [MCOLN1], the protein stability index is 3.34 ± 0.44 under setting [1] and 2.93 ± 0.46 under setting [2].

Consider LTDGHFENILADNSVNDQTKILVV [SERPINB5], for which the protein stability index stood at 3.09 ± 0.44 under setting [1] and 3.67 ± 0.29 under setting [2].

Take LTENTAENRELYIKTTLRELLVYI [PKD2L1]: the protein stability index worked out at 2.31 ± 0.36 under setting [1] and 2.45 ± 0.33 under setting [2].

For LTGTARYMSINTHLGKEQSRRDDL [CSNK1G1], the protein stability index by setting is: under setting [1], 3.9 ± 0.31; under setting [2], 4.02 ± 0.46.

As to LTQWKDSLVSLVLYNMDLSDDHIR [ZER1], the protein stability index is 2.52 ± 0.32 under setting [1] and 2.31 ± 0.097 under setting [2].

Regarding LTRPEPVHEFCAGRECQPRWETSS [ADAMTSL2], the protein stability index runs as follows: under setting [1], 3.76 ± 0.15; under setting [2], 3.98 ± 0.42.

LVHIVCHKKTTHKLNCDPSRIYKP [DFFB]: the protein stability index came out at 2.41 ± 0.11 under setting [1] and 1.96 ± 0.41 under setting [2].

On to LVKQECIKEVVEKREACHCEEVKM [FAN1], for which the protein stability index is, setting by setting: under setting [1], 4.54 ± 0.4; under setting [2], 4.7 ± 0.23.

For LVLQTSEGKALQQYPSERELRGI [TRIM9], the protein stability index amounted to 3.01 ± 0.96 (treatment: DMSO, c terminus: native) and 2.98 ± 0.54 (treatment: MLN4924 1 uM, 8 h, c terminus: native).

As to LVTTHHLMVHGNERFIQYLASRNT [SNAP91], the protein stability index worked out at 2.18 ± 0.17 under setting [1] and 2.07 ± 0.42 under setting [2].

Turning to LVYHPVQLSTPHAVGVLLLGLVGY [DHCR7], the protein stability index reads like this: under setting [1], 3.5 ± 0.77; under setting [2], 3.08 ± 0.23.

As for LYPSAPILGGSGPVRKLYDDCSST [ESRRG], the protein stability index runs as follows: under setting [1], 3.82 ± 0.3; under setting [2], 3.72 ± 0.24.

Turning to MAESWLRLSGAGPAEEAGPEGGLE [FOXJ1], the protein stability index reads like this: under setting [1], 4.67 ± 0.17; under setting [2], 5.01 ± 0.22.

For the sequence MDEISEKLKKGICEALEDSDGRQD [MATN2], the protein stability index came out at 5.42 ± 0.25 under setting [1] and 5.4 ± 0.17 under setting [2].

For MECYDIYSKTWTKQPDLTMVRKIG [GAN], the protein stability index worked out at 2.14 ± 0.34 under setting [1] and 2.66 ± 0.23 under setting [2].

Consider MEGLETAEGSNSESSDDDSEEAPS [SDE2], for which the protein stability index runs as follows: under setting [1], 5.51 ± 0.2; under setting [2], 5.51 ± 0.39.

Take MEIATYRKLLESEECRMSGEFPSP [KRT71]: the protein stability index runs as follows: under setting [1], 3.91 ± 0.53; under setting [2], 4.07 ± 0.36.

With MENQVLTPHVYWAQRHRELYLRVE [HACD3], the protein stability index came out at 2.4 ± 0.31 under setting [1] and 2.35 ± 0.27 under setting [2].

In the case of MEPSPLSPSGAALPLPLSLAPPPL [ZBTB22], the protein stability index under setting [1] came out at 4.07 ± 0.35 and the protein stability index under setting [2] was found to be 4.11 ± 0.18.

As to MESKRLRLLQEEDRRKKIARMGFN [DCAF4], the protein stability index under setting [1] turned out to be 3.44 ± 0.36 and the protein stability index under setting [2] worked out at 3.73 ± 0.48.

Consider MFLHPVDYGRKAEELLWRKVYYEV [SMG5], for which the protein stability index reads like this: under setting [1], 2.45 ± 0.59; under setting [2], 2.11 ± 0.22.

For MGQKVTGGIKTVDMRDPTYRPLKQ [SPSB1], the protein stability index runs as follows: under setting [1], 3.89 ± 0.22; under setting [2], 4.01 ± 0.28.

On to MKKIKKLENDTISKQLTLEQLRRE [CCDC6], for which the protein stability index reads like this: under setting [1], 3.71 ± 1.1; under setting [2], 3.84 ± 0.67.

Consider MKLFDSICNNKWFTDTSIILFLNK [GNAI1], for which the protein stability index is, setting by setting: under setting [1], 2.6 ± 0.59; under setting [2], 2.58 ± 0.59.

Regarding MKVEAKSHLQWQESRLKRSNPLAR [ZSCAN9], the protein stability index is 3.35 ± 0.33 under setting [1] and 3.67 ± 0.19 under setting [2].

Sequence MLGYKRHLALHAASSGDLTCGVCA [PLAGL1] had a protein stability index under setting [1] of 2.53 ± 0.23 and a protein stability index under setting [2] of 2.73 ± 0.4.
